Reference: US20250009852A1, “DEPLETING EGFR AND HER2 OVERCOMES RESISTANCE TO EGFR INHIBITORS IN COLORECTAL CANCER” (Health Research, Inc., priority 2021, published 2025)

B1: PEPD^G278D: recombinant and enzymatically inactive mutant of human peptidase D (PEPD), with replacement of glycine 278 by aspartic acid (protein)
chain: AAATGPSFWLGNETLKVPLALFALNRQRLCERLRKNPAVQAGSIVVLQGGEETQRYCTDTGVLFLQESFFHWAFGVTEPGCYGVIDVDTGKSTLFVPRLPASHATWMGKIHSKEHFKEKYAVDDVQYVDEIASVLTSQKPSVLLTLRGVNTDSGSVCREASFDGISKFEVNNTILHPEIVESRVFKTDMELEVLRYTNKISSEAHREVMKAVKVGMKEYGLESLFEHYCYSRGGMRHSSYTCICGSGENSAVLHYGHAGAPNDRTIQNGDMCLFDMDGEYYSVASDITCSFPRNGKFTADQKAVYEAVLLSSRAVMGAMKPGDWWPDIDRLADRIHLEELAHMGILSGSVDAMVQAHLGAVFMPHGLGHFLGIDVHDVGGYPEGVERIDEPGLRSLRTARHLQPGMVLTVEPGIYFIDHLLDEALADPARASFLNREVLQRFRGFGGVRIEEDVVVIDSGIELLTCVPRTVEEIEACMAGCDKAFTPFSGPK
modifications: left off: small tags and cut ends

Tests used:
HB-EGF = experiment: Measurement of soluble HB-EGF in tumor tissues by ELISA; assay type: in vivo, mouse; conditions: HCT116 and HT29 tumors; aderbasib 60 mg/kg
Procedure: Concentrations of AREG and HB-EGF in tumor tissues were measured using the Human Amphiregulin/AREG ELISA Kit PicoKine and HB-EGF ELISA Kit, following the manufacturer's instruction. Briefly, 100 μl of standard or tumor tissue homogenate (cleared by centrifugation) was added to a microtiter well pre-coated with anti-human AREG or anti-human HB-EGF and incubated for 2 h at RT. After washing the plate with washing buffer, 100 μl of biotinylated anti-human AREG or biotinylated anti-human HB-EGF were added to each well and incubated for 1.5 h at RT. The microtiter wells were washed 3 times with wash buffer and incubated with 100 μl/well of avidin-biotin-peroxidase complex for 40 min at RT. The microtiter wells were washed 5 times with wash buffer and incubated with 90 µl/well color developing reagent for 30 min at RT. After adding 100 μl of stop solution to each well, absorbance at 450 nm was recorded by a Synergy 2 Multi-Mode Microplate Reader.

HRAS, NRAS, KRAS = experiment: Western blotting of whole cell lysates: RAS proteins; assay type: cell-based, human; conditions: 48 h
Procedure: (§1) To prepare whole cell lysates, cells were washed with PBS twice, mixed with 1× cell lysis buffer from Cell Signaling Technology supplemented with 2 mM PMSF and a protease inhibitor cocktail from Roche Applied Science, placed on ice for 10 min, sonicated at 0-4° C. to enhance cell lysis using a Branson Model 450 sonifier, and finally centrifuged at 13,000 g for 10 min at 4° C., and the supernatant fraction is collected as whole cell lysate. Tumor and samples were mixed with RIPA buffer (25 mM Tris-HCl, PH7.6, 150 mM NaCl, 1% Nonidet P-40, 1% sodium deoxycholate, and 0.1% SDS), which was supplemented with 2 mM PMSF, the protease inhibitor cocktail mentioned above, phosphatase inhibitor cocktail 2 and phosphatase inhibitor cocktail 3 from Sigma-Aldrich at 14.3 μl buffer per mg tissue, and homogenized in a Dounce homogenizer. The homogenates were cleared by centrifugation at 13,000 g for 15 min at 4° C.
Protein concentrations in all samples were measured using the BCA Assay Kit. […] Proteins were transferred to polyvinylidene fluoride membrane, probed with specific antibodies, and detected using either Luminata Classico (Millipore) or Luminata Cresendo (Millipore). […] The beads were washed three times with IP buffer, suspended in 2× SDS loading buffer, boiled for 5 min, and analyzed by Western blotting.

EGFR and HER2 [1] = experiment: Western blotting of whole cell lysates: EGFR and HER2; assay type: cell-based, human; conditions: 25 nM
Procedure: as §1
(§2) Protein concentrations in all samples were measured using the BCA Assay Kit. For Western blotting, each sample was mixed with 4× loading dye, heated for 5 min at 95° C., and resolved by SDS-PAGE (8-12.5%). Proteins were transferred to polyvinylidene fluoride membrane, probed with specific antibodies, and detected using either Luminata Classico (Millipore) or Luminata Cresendo (Millipore). For IP, cell lysates (0.5 mg protein/sample) were incubated with a desired antibody overnight at 4° C., followed by incubation of 500 μl sample with 30 μl G-Sepharose beads (2 mg/ml) for 1 h at RT. The beads were washed three times with IP buffer, suspended in 2× SDS loading buffer, boiled for 5 min, and analyzed by Western blotting.

EGFR and HER2 [2] = target: T1, EGFR and HER2 (Homo sapiens, UniProt P00533); experiment: as above; assay type: cell-based; conditions: HCT116, HT29 and SW48 cells, medium with 10% serum, 25 nM
T1 construct: Both EGFR and HER2 were expressed in HCT116, HT29, and SW48 cells; endogenous in cells; host or cells: HCT116, HT29, SW48 (SW620 lacks both)
Procedure: as §1, §2

[3] = Measurement of plasma PEPD^G278D concentration by ELISA; assay type: in vivo, mouse; conditions: mice bearing SW48 tumors and HCT116 tumors; 24 h after final PEPD^G278D treatment (4 mg/kg ip with EP)
Procedure: Plasma PEPD^G278D concentration was measured by ELISA as previously reported. Briefly, 96-well ELISA plates were coated with 100 μl/well of a PEPD antibody (mouse monoclonal, against amino acids 101-305, sc-390042) overnight at 4° C. The plates were then washed three times with PBST and incubated with 200 μl/well of a blocking buffer for at least 2 h at RT. The plates were washed again with PBST and incubated with 100 μl/well of a PEPD standard or a sample, which were appropriately diluted, for 2 h at RT. After another round of wash with PBST, each well was incubated with 100 μl of a detection antibody (an anti-PEPD rabbit polyclonal, ab-86507) for 2 h at RT. After another round of wash with PBST, 100 μl of a secondary antibody-HRP conjugate was added to each well, followed by 1 h incubation at RT. The plates were washed again with PBST three times, and each well was then incubated with 100 μl of a HRP substrate solution. After adequate color development, 100 μl of stop solution was added to each well, and absorbance at 450 nm was recorded by a Synergy 2 Multi-Mode Microplate Reader. Purified recombinant PEPD^G278D was used as a standard.

HCT116 cells = experiment: MTT cell proliferation assay; assay type: cell-based, human; conditions: 24, 48 or 72 h, PEPD^G278D 5-250 nM, cetuximab 2.75-275 nM, panitumumab 2.77-277 nM
Procedure: (§3) Cells were grown in 96-well plates. […] The cells were then washed with PBS and mixed with dimethyl sulfoxide (150 μl per well), and cell density was determined by measuring the reduction of MTT to formazan spectroscopically at 570 nm using a Synergy 2 Multi-Mode Microplate Reader (BioTek). In experiments involving siRNA transfection, 2×10^3 HCT116 cells or 6×10^3 HT29 cells were seeded to each well of 96-well plates overnight and then transfected 25 nM siRNA (scramble siRNA, EGFR siRNA or HER2 siRNA) as described above, followed by MTT assay.

SW48 cells = experiment: MTT cell proliferation assay; assay type: cell-based, human
Procedure: as §3

SW620 cells = experiment: MTT cell proliferation assay; assay type: cell-based, human; conditions: SW620 cells (no EGFR, no HER2); 24, 48 or 72 h
Procedure: as §3

HT29 cells = experiment: MTT cell proliferation assay; assay type: cell-based, human; conditions: 24, 48 or 72 h, PEPD^G278D 5-250 nM, cetuximab 2.75-275 nM, panitumumab 2.77-277 nM
Procedure: as §3

| EGFR level (EGFR and HER2 [2]; 6 h) | EGFR level (EGFR and HER2 [2]; 24 h) | Molecule | soluble HB-EGF level in the tumor tissues (HB-EGF) | expression of HRAS and NRAS (HRAS, NRAS, KRAS; HCT116, HT29 and SW48 cells, 25 nM) | expression of WT or mutated KRAS (HRAS, NRAS, KRAS; PEPD^G278D 25 nM, cetuximab 275 nM) | HER2 level (EGFR and HER2 [1]; HCT116, HT29 and SW48 cells, medium with 10% serum, 3 h) | expression and tyrosine phosphorylation of EGFR and HER2 (EGFR and HER2 [1]; SW48, HCT116 and HT29 cells, 48 h) | EGFR and HER2 level (EGFR and HER2 [1]; serum-free medium, 3 h) | plasma concentrations of PEPD^G278D [3] | cell growth measured by MTT assay (HCT116 cells) | growth-inhibitory potency compared with the EGFR MABs (SW48 cells) | cell growth measured by MTT assay (SW48 cells; 24, 48 or 72 h, PEPD^G278D 5-250 nM, cetuximab 2.75-275 nM, panitumumab 2.77-277 nM) | cell growth measured by MTT assay (SW620 cells) | cell growth measured by MTT assay (HT29 cells) |
| --- | --- | --- | --- | --- | --- | --- | --- | --- | --- | --- | --- | --- | --- | --- |
| – | – | COC(=O)N1CC2(CC2)C[C@H](C(=O)NO)[C@H]1C(=O)N1CC=C(c2ccccc2)CC1 [aderbasib] | marked decrease | – | – | – | – | – | – | – | – | – | – | – |
| no decrease | profound decrease | B1 | – | strongly downregulates | neither PEPD^G278D nor cetuximab regulated the expression | decreased markedly | obliterated | marked decrease | high and similar | strongly inhibited the growth | more potent | strongly inhibited the growth | ineffective | strongly inhibited the growth |
